Laboratory results: patent publication US11897966 (UTC THERAPEUTICS SHANGHAI, dated 2024)

Molecular target: T1, mesothelin-Fc recombinant protein (human, UniProt Q13421 296-580, limits assumed)
T1 construct: also called mesothelin-Fc protein; human Mesothelin-Fc; not shown: Fc part
Assay: FACS of T cells expressing the scFv CAR, stained with Mesothelin-Fc + PE-anti-IgG-Fc; Mock T cells of the same block: 0.63

T1 sequence (Q13421 other isoform, or with tags, fused parts or gaps limits assumed): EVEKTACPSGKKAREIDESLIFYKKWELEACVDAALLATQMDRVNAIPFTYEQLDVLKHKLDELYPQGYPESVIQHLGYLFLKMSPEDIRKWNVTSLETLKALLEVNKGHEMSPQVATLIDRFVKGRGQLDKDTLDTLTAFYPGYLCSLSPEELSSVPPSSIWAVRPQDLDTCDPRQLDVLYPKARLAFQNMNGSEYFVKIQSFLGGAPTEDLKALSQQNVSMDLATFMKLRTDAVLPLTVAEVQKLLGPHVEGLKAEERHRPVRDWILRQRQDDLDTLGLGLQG

| Binder | number in the Mesothelin-Fc positive gate (percent of cells, unit not given) |
| --- | --- |
| anti-mesothelin scFv-M15 (scFv) DIQLTQSPSSLSASIGDRVTITCRASQGVNSALAWYQQKPGKPPNLLIYDASSLESGVPSRFSGSGSGRDFTLTISSLQPEDFATYYCQQFSSYPLTFGGGTKVDIKGGGGSGGGGSGGGGSQVQLVQSGAEVKKPGASVKVSCKASGYTFTSYYMHWVRQAPGQGLEWMGIINPSGGSTSYAQKFQGRVTMTRDTSTSTVYMELSSLRSEDTAVYYCARAQRGGSVYFDYWGQGTLVTVSS | 48.8 |
| anti-mesothelin scFv-M8 (scFv) DIQLTQSPSSLSASVGDRVTITCRASQSISSSLNWYQQKPGKAPKLLIYAASSLQSGVPSRFSGSGSGTDFTLTISSLQPEDFATYSCQQSYSTPLTFGGGTKVEIKGGGGSGGGGSGGGGSQVHLVESGGGVVQPGRSLRVSCAASGFTFSGYAMYWVRQAPGKGLEYVSAITTNGGSTNYADSVKGRFTISRDNSKNTLYLQMSSLRAGDTAVYYCARGAPGYRGYYMDVWGKGTTVTVSS | 80.8 |
| M18 (scFv) chain 1: QVQLVQSGGGLVQPGGSLRLSCAASGFTFSSYWMHWVRQAPGKGLVWVSRINSDGSSTSYADSVKGRFTISRDNAKNTLYLQMNSLRAEDTAVYYCVRTGWVGSYYYYMDVWGKGTTVTVSS chain 2: EIVLTQSPGTLSLSPGERATLSCRASQSVSSNYLAWYQQKPGQPPRLLIYDVSTRATGIPARFSGGGSGTDFTLTISSLEPEDFAVYYCQQRSNWPPWTFGQGTKVEIK | 9.53 |
| anti-mesothelin scFv-M7 (scFv) DIRLTQSPSSLSASLGDRVTITCRASQAISSALAWYQQKPGKAPRLLIYDASTLESGVPSRFSGSGSGTDFTLTISSLQPEDFATYYCQQADSFPLTFGGGTKLEIKGGGGSGGGGSGGGGSQVQLVQSGAEVKKSGESLKISCKGSGYGFGAYWIAWVRQMPGKGLEWMGIIYPGDSRVIYSPYFQGQVTISADKSISTAYLQWSSLKASDTAMYYCARFGGPKFATNWFDIWGQGTTVTVSS | 36.3 |
| anti-mesothelin scFv-M6 (scFv) EIVMTQSPATLSLSPGERATLSCRASQSIGNSLAWYQQKPGQAPRLLIYDVSNRATGIPARFSGSGSGTDFTLTISSLEPEDFAVYYCQHRYSWPLTFGGGTKVEIKGGGGSGGGGSGGGGSQVQLVQSGGGLVKPGGSLRLSCAASGFTFSDYYMSWIRQAPGKGLEWVSYISSSGSTIYYADSVKGRFTISRDNAKNSLYLQMNSLRAEDTAVYYCARDGYRTHNWFDPWGQGTLVTVSS | 83.4 |
| anti-mesothelin scFv-M13 (scFv) AIRMTQSPSSLSASVGDRVTITCRASQGISNSLAWYQQKPGKAPKLLLYAASRLESGVPSRFSGSGSGTDYTLTISSLQPEDFATYYCQQYYSTPFTFGPGTKLEIKGGGGSGGGGSGGGGSQVQLVQSGAEVKKPGSSVKVSCKTSADTFSANTINWVRQAPGHGLEWMGRIIPSLNIRDYAQEFQGRVTFTADESTNTVYMQLTSLRSEDTAVYYCARDPGSTWSPNQFFPHWGQGTLVTVSS | 71.1 |

Molecular target: T1, mesothelin-Fc recombinant protein
Assay: FACS of T cells expressing the scFv CAR, stained with Mesothelin-Fc + PE-anti-IgG-Fc; Mock T cells of the same block: 0.97

| Binder | number in the Mesothelin-Fc positive gate (percent of cells, unit not given) |
| --- | --- |
| anti-mesothelin scFv-M31 (scFv) QSALTQPPSASGSPGQSVTISCTGTSSDIGGYNSVSWYQQHPGKAPKLIIYGVSRRPSGVPDRFSGSKSANTASLTVSGLQAVDEADYYCSSYGGSNNLLFGGGTKLTVLGGGGSGGGGSGGGGSEVHLVESGGGLAQPGGSLRLSCAASGFSFSSSWMAWVRQAPGKGLEWVANIKQDGSSQYYVDSVKGRFTISRDNAKNSLSLQMNSLRAEDTAVYYCARDIWYSIDYWGQGTLVTVSS | 67.9 |
| anti-mesothelin scFv-M28 (scFv) QSALTQPPSASGSPGQSVTISCSGTSSDVGGYNFVSWYQHHPGKAPKLMIYEVSKRPSGVPDRFSGSKSGNTASLTVSGLQAEDEADYYCSSYAGRNNPYLFGTGTKLTVLGGGGSGGGGSGGGGSQLQLQESGAEVKKPGSSVKVSCKASGGTFSSYAISWVRQAPGQGLEWMGGIIPIFGTANYAQKFQGRVTITADESTSTAYMELSSLRSEDTAVYYCARDLGGYSYGHGLDYWGQGTLVTVSS | 82.8 |
| anti-mesothelin scFv-M32 (scFv) DIRMTQSPSSLSASVGDRVTVTCQASEDINNSLNWYQQKPGKAPQLLIYDASDLETGVPSRFSGRGSGRDFTLTISSLQPEDFATYYCQQLNSYPLTFGGGTKLEIKGGGGSGGGGSGGGGSQVQLVQSGAEVKKPGASVKVSCKASGFTFIGYYLHWVRQAPGQGLEWMGIINPSGGRTSMAQKFQGRVSMTTDTSTGTVYLDLGRLGSDDTAVYYCARADNWNAGSMDVWGNGTTVTVSS | 84.1 |
| anti-mesothelin scFv-M27 (scFv) EIVLTQSPGTLSLSPGERATLSCRASQPIVASHLAWYQHKPGQAPRLLIYGASTRAAGIPDRFSGSGSGTDFTLTISRLEPEDFAVYFCQQYGISPFTFGPGTKVDIKGGGGSGGGGSGGGGSQVQLVQSGAEVKKPGESLKISCQGSGYSFTDYWIGWVRQAPGQGLEWMGWITPNNGNTNYAPKFQGRVTLTTDTSTSTAYMELRSLTSDDTAVYFCARRGRNSSGYLYYYSMDVWGQGTTVTVSS | 76.3 |
| anti-mesothelin scFv-M20 (scFv) AIQMTQSPSSLSASVGNRVTITCRASQGISSAVAWYQQKPGKPPKLLISYASSLESGVPSRFSGSGSGTDFSLTISSLQPEDFATYFCQQFNSYPLTFGGGTKVEIKGGGGSGGGGSGGGGSQVQLVQSGAEVRKPGESLKISCKGSGYSFRDSWIAWVRQMPGQGLEWMGIIFPGDSNPIYSPSFQGQVTISADTSISTTFLQWRSLKASDSAIYYCARHAAWGAGWFDPWGQGTLVTVSS | 75.6 |
| anti-mesothelin scFv-M22 (scFv) QSALTQPASVSGSPGQSITLSCTGTRRDIGGYEYVSWYQQHPGKAPKLLIFSVNNRPSGVSHRFSGSKSGNTASLTISGLQAEDEAAYFCSSYSSRDTLVLFGGGTKLTVLGGGGSGGGGSGGGGSQVQLVQSGAEVKKPGSSVKVSCKASGGTFSSYAISWVRQAPGQGLEWMGGIIPIFGTANYAQKFQGRVTITADESTSTAYMELSSLRSEDTAVYYCASGRSGSYGLYWGQGTLVTVSS | 80 |
| anti-mesothelin scFv-M24 (scFv) QPVLTQPPSASGTPGQRVTISCSGSSSNIGSNYVYWYQQFPGTAPKLLIYMNNQRPSGVPDRFSGSKSGTSASLAISGLRSEDEADYYCAARDDSLSGYVTFGGGTKLTVLGGGGSGGGGSGGGGSEVHLVESGGGLVQPGGSLRLSCAASGFTFSSYAMSWVRQAPGKGLEWVSAISGSGGSTYYADSVKGRFTISRDNSKNTLYLQMNSLKTEDTAVYYCTRGVATFDYWGQGTLVTVSS | 93.6 |
| anti-mesothelin scFv-M37 (scFv) DIVMTQTPSSLSASVGDRVTITCRASQGISNYLAWFQQKPGKAPKPLIYAASSLQSGVPSKFSGSGSGTDFTLTISNLQPEDFATYICQQYSSYPITFGQGTRLEIKGGGGSGGGGSGGGGSQLQLQESGPGLVKPSETLSLTCAVSGGSISPYYWTWIRQSPGKAMEWMGYIHYSGRTNYNPSLESRATFSVDTSKNQISLKLNSVTAADTAVYYCTKVGDPGLFDYWGPGTLVTVSS | 74.2 |
